Source: paper doi:10.1101/2024.03.12.584565 (bioRxiv, 2024)

Experiments:
[1] = target: His6-SUMO3-sororin (human, UniProt Q96FF9 1-252); test: pull-down
[2] = target: T1, recombinant human Wapl (human, UniProt Q7Z5K2 1-1190); test: pull-down
T1 sequence: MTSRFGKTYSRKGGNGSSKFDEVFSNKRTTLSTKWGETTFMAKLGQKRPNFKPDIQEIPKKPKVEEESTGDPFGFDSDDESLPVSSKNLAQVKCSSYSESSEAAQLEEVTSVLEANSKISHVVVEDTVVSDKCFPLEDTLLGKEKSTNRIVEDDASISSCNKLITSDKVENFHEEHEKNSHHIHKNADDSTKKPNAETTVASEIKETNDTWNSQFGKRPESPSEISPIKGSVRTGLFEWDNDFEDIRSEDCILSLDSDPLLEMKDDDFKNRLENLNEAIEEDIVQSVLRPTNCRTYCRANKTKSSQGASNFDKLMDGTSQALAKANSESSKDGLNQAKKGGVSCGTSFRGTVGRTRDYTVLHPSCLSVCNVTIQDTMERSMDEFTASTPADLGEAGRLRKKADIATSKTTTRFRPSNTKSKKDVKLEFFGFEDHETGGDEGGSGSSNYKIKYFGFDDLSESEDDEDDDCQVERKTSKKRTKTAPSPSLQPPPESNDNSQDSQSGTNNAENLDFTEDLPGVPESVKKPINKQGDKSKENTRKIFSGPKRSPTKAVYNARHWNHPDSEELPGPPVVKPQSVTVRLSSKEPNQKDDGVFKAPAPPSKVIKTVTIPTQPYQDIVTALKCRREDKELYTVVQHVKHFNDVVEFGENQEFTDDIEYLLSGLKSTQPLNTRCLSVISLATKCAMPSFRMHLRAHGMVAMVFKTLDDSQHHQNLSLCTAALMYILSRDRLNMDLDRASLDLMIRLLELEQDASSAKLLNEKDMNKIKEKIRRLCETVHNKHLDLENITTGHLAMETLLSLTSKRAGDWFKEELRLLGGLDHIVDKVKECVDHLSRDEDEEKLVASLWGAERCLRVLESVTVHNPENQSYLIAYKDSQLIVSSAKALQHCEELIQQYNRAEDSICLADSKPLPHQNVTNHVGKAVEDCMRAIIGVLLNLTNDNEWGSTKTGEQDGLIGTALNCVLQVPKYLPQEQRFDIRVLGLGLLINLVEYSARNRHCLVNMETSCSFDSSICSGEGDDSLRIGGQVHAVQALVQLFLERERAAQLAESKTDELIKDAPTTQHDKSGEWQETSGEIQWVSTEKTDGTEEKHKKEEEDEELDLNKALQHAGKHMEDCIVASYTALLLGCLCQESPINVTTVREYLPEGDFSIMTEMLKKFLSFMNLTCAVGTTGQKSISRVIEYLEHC

His6-SUMO3-sororin, sequence (Q96FF9 whole entry): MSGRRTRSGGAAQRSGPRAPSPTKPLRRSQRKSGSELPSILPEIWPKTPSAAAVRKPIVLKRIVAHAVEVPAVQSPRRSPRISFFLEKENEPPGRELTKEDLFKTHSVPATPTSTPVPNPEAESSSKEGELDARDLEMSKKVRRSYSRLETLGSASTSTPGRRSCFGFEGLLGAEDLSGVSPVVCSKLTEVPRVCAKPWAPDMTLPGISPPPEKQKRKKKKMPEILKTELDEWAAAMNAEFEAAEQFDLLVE

Binder | binding result [1] | binding result [2]
Flag-tagged Pds5b-Ser1177,1182,1209Ala (3A), untreated or exposed to Nek2a (natural protein) MAHSKTRTNDGKITYPPGVKEISDKISKEEMVRRLKMVVKTFMDMDQDSEEEKELYLNLALHLASDFFLKHPDKDVRLLVACCLADIFRIYAPEAPYTSPDKLKDIFMFITRQLKGLEDTKSPQFNRYFYLLENIAWVKSYNICFELEDSNEIFTQLYRTLFSVINNGHNQKVHMHMVDLMSSIICEGDTVSQELLDTVLVNLVPAHKNLNKQAYDLAKALLKRTAQAIEPYITNFFNQVLMLGKTSISDLSEHVFDLILELYNIDSHLLLSVLPQLEFKLKSNDNEERLQVVKLLAKMFGAKDSELASQNKPLWQCYLGRFNDIHVPIRLECVKFASHCLMNHPDLAKDLTEYLKVRSHDPEEAIRHDVIVSIVTAAKKDILLVNDHLLNFVRERTLDKRWRVRKEAMMGLAQIYKKYALQSAAGKDAAKQIAWIKDKLLHIYYQNSIDDRLLVERIFAQYMVPHNLETTERMKCLYYLYATLDLNAVKALNEMWKCQNLLRHQVKDLLDLIKQPKTDASVKAIFSKVMVITRNLPDPGKAQDFMKKFTQVLEDDEKIRKQLEVLVSPTCSCKQAEGCVREITKKLGNPKQPTNPFLEMIKFLLERIAPVHIDTESISALIKQVNKSIDGTADDEDEGVPTDQAIRAGLELLKVLSFTHPISFHSAETFESLLACLKMDDEKVAEAALQIFKNTGSKIEEDFPHIRSALLPVLHHKSKKGPPRQAKYAIHCIHAIFSSKETQFAQIFEPLHKSLDPSNLEHLITPLVTIGHIALLAPDQFAAPLKSLVATFIVKDLLMNDRLPGKKTTKLWVPDEEVSPETMVKIQAIKMMVRWLLGMKNNHSKSGTSTLRLLTTILHSDGDLTEQGKISKPDMSRLRLAAGSAIVKLAQEPCYHEIITLEQYQLCALAINDECYQVRQVFAQKLHKGLSRLRLPLEYMAICALCAKDPVKERRAHARQCLVKNINVRREYLKQHAAVSEKLLSLLPEYVVPYTIHLLAHDPDYVKVQDIEQLKDVKECLWFVLEILMAKNENNSHAFIRKMVENIKQTKDAQGPDDAKMNEKLYTVCDVAMNIIMSKSTTYSLESPKDPVLPARFFTQPDKNFSNTKNYLPPEMKSFFTPGKPKTTNVLGAVNKPLSSAGKQSQTKSSRMETVSNASSSSNPSSPGRIKGRLDSAEMDHAENEDYTMSSPLPGKKSDKRDDSDLVRAELEKPRGRKKTPVTEQEEKLGMDDLTKLVQEQKPKGSQRSRKRGHTASESDEQQWPEEKRLKEDILENEDEQNSPPKKGKRGRPPKPLGGGTPKEEPTMKTSKKGSKKKSGPPAPEEEEEEERQSGNTEQKSKSKQHRVSRRAQQRAESPESSAIESTQSTPQKGRGRPSKTPSPSQPKKNVRVGRSKQAATKENDSSEEVDVFQGSSPVDDIPQEETEEEEVSTVNVRRRSAKRERR | binds | –
Flag-tagged Pds5b-Ser1177,1182,1209Ala (3A), phosphorylated by Cdk1/2-cyclin A2 in vitro (natural protein) MAHSKTRTNDGKITYPPGVKEISDKISKEEMVRRLKMVVKTFMDMDQDSEEEKELYLNLALHLASDFFLKHPDKDVRLLVACCLADIFRIYAPEAPYTSPDKLKDIFMFITRQLKGLEDTKSPQFNRYFYLLENIAWVKSYNICFELEDSNEIFTQLYRTLFSVINNGHNQKVHMHMVDLMSSIICEGDTVSQELLDTVLVNLVPAHKNLNKQAYDLAKALLKRTAQAIEPYITNFFNQVLMLGKTSISDLSEHVFDLILELYNIDSHLLLSVLPQLEFKLKSNDNEERLQVVKLLAKMFGAKDSELASQNKPLWQCYLGRFNDIHVPIRLECVKFASHCLMNHPDLAKDLTEYLKVRSHDPEEAIRHDVIVSIVTAAKKDILLVNDHLLNFVRERTLDKRWRVRKEAMMGLAQIYKKYALQSAAGKDAAKQIAWIKDKLLHIYYQNSIDDRLLVERIFAQYMVPHNLETTERMKCLYYLYATLDLNAVKALNEMWKCQNLLRHQVKDLLDLIKQPKTDASVKAIFSKVMVITRNLPDPGKAQDFMKKFTQVLEDDEKIRKQLEVLVSPTCSCKQAEGCVREITKKLGNPKQPTNPFLEMIKFLLERIAPVHIDTESISALIKQVNKSIDGTADDEDEGVPTDQAIRAGLELLKVLSFTHPISFHSAETFESLLACLKMDDEKVAEAALQIFKNTGSKIEEDFPHIRSALLPVLHHKSKKGPPRQAKYAIHCIHAIFSSKETQFAQIFEPLHKSLDPSNLEHLITPLVTIGHIALLAPDQFAAPLKSLVATFIVKDLLMNDRLPGKKTTKLWVPDEEVSPETMVKIQAIKMMVRWLLGMKNNHSKSGTSTLRLLTTILHSDGDLTEQGKISKPDMSRLRLAAGSAIVKLAQEPCYHEIITLEQYQLCALAINDECYQVRQVFAQKLHKGLSRLRLPLEYMAICALCAKDPVKERRAHARQCLVKNINVRREYLKQHAAVSEKLLSLLPEYVVPYTIHLLAHDPDYVKVQDIEQLKDVKECLWFVLEILMAKNENNSHAFIRKMVENIKQTKDAQGPDDAKMNEKLYTVCDVAMNIIMSKSTTYSLESPKDPVLPARFFTQPDKNFSNTKNYLPPEMKSFFTPGKPKTTNVLGAVNKPLSSAGKQSQTKSSRMETVSNASSSSNPSSPGRIKGRLDSAEMDHAENEDYTMSSPLPGKKSDKRDDSDLVRAELEKPRGRKKTPVTEQEEKLGMDDLTKLVQEQKPKGSQRSRKRGHTASESDEQQWPEEKRLKEDILENEDEQNSPPKKGKRGRPPKPLGGGTPKEEPTMKTSKKGSKKKSGPPAPEEEEEEERQSGNTEQKSKSKQHRVSRRAQQRAESPESSAIESTQSTPQKGRGRPSKTPSPSQPKKNVRVGRSKQAATKENDSSEEVDVFQGSSPVDDIPQEETEEEEVSTVNVRRRSAKRERR | – | binds
Flag-tagged Pds5b-Ser1161,1166,1177,1182,1209Ala (5A), untreated or exposed to Nek2a and Cdk1/2-cyclin A2 (natural protein) MAHSKTRTNDGKITYPPGVKEISDKISKEEMVRRLKMVVKTFMDMDQDSEEEKELYLNLALHLASDFFLKHPDKDVRLLVACCLADIFRIYAPEAPYTSPDKLKDIFMFITRQLKGLEDTKSPQFNRYFYLLENIAWVKSYNICFELEDSNEIFTQLYRTLFSVINNGHNQKVHMHMVDLMSSIICEGDTVSQELLDTVLVNLVPAHKNLNKQAYDLAKALLKRTAQAIEPYITNFFNQVLMLGKTSISDLSEHVFDLILELYNIDSHLLLSVLPQLEFKLKSNDNEERLQVVKLLAKMFGAKDSELASQNKPLWQCYLGRFNDIHVPIRLECVKFASHCLMNHPDLAKDLTEYLKVRSHDPEEAIRHDVIVSIVTAAKKDILLVNDHLLNFVRERTLDKRWRVRKEAMMGLAQIYKKYALQSAAGKDAAKQIAWIKDKLLHIYYQNSIDDRLLVERIFAQYMVPHNLETTERMKCLYYLYATLDLNAVKALNEMWKCQNLLRHQVKDLLDLIKQPKTDASVKAIFSKVMVITRNLPDPGKAQDFMKKFTQVLEDDEKIRKQLEVLVSPTCSCKQAEGCVREITKKLGNPKQPTNPFLEMIKFLLERIAPVHIDTESISALIKQVNKSIDGTADDEDEGVPTDQAIRAGLELLKVLSFTHPISFHSAETFESLLACLKMDDEKVAEAALQIFKNTGSKIEEDFPHIRSALLPVLHHKSKKGPPRQAKYAIHCIHAIFSSKETQFAQIFEPLHKSLDPSNLEHLITPLVTIGHIALLAPDQFAAPLKSLVATFIVKDLLMNDRLPGKKTTKLWVPDEEVSPETMVKIQAIKMMVRWLLGMKNNHSKSGTSTLRLLTTILHSDGDLTEQGKISKPDMSRLRLAAGSAIVKLAQEPCYHEIITLEQYQLCALAINDECYQVRQVFAQKLHKGLSRLRLPLEYMAICALCAKDPVKERRAHARQCLVKNINVRREYLKQHAAVSEKLLSLLPEYVVPYTIHLLAHDPDYVKVQDIEQLKDVKECLWFVLEILMAKNENNSHAFIRKMVENIKQTKDAQGPDDAKMNEKLYTVCDVAMNIIMSKSTTYSLESPKDPVLPARFFTQPDKNFSNTKNYLPPEMKSFFTPGKPKTTNVLGAVNKPLSSAGKQSQTKSSRMETVSNASSASNPSAPGRIKGRLDSAEMDHAENEDYTMSSPLPGKKSDKRDDSDLVRAELEKPRGRKKTPVTEQEEKLGMDDLTKLVQEQKPKGSQRSRKRGHTASESDEQQWPEEKRLKEDILENEDEQNSPPKKGKRGRPPKPLGGGTPKEEPTMKTSKKGSKKKSGPPAPEEEEEEERQSGNTEQKSKSKQHRVSRRAQQRAESPESSAIESTQSTPQKGRGRPSKTPSPSQPKKNVRVGRSKQAATKENDSSEEVDVFQGSSPVDDIPQEETEEEEVSTVNVRRRSAKRERR | binds | –
